This is an account of results in publication PMC4364671, “Identification and Characterization of Bifunctional Proline Racemase/Hydroxyproline Epimerase from Archaea: Discrimination of Substrates and Molecular Evolution” (PLoS ONE, 2015).

Data set [1] deals with ProR-like protein from Haloarcula japonica (Haloarcula japonica DSM 6131). Briefly: SEC; analytic gel filtration by HPLC on TSKgel G3000SWXL, 50 mM Tris-HCl pH 8.0, 1 ml/min, high molecular weight calibration kit; data not shown.
Data set [2] addresses ProR-like protein from Ferroplasma acidiphilum (Ferroplasma acidiphilum DSM 12658). Described as above.
Data set [3] addresses ProR-like protein (OCC_00372) from Thermococcus litoralis, bifunctional proline racemase/hydroxyproline epimerase (Thermococcus litoralis DSM 5473). The description is as above.
Data set [4] has as its target Hydroxyproline 2-epimerase from Azospirillum brasilense (Azospirillum brasilense ATCC 29145). The description is as above.
The target of data set [5] is T1, TlProR (bifunctional proline racemase/hydroxyproline epimerase) (Thermococcus litoralis, UniProt H3ZMH5).
T1 construct: gene OCC_00372
T1 sequence (H3ZMH5 1-331): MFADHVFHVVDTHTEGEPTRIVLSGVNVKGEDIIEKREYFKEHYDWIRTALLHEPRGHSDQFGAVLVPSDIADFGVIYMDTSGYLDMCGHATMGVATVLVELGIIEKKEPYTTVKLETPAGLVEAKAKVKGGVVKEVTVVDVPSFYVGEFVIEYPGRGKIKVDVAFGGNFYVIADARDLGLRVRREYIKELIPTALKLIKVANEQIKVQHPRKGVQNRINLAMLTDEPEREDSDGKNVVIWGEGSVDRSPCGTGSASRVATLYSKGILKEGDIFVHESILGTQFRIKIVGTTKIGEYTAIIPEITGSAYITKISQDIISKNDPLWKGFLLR
In words: HPLC racemase assay with L-proline, chiral separation. In kind it is biochemical.

A further data set concerns the target T2, HjProR (Haloarcula japonica, UniProt M0LMI3).
T2 construct: gene C444_02196; full length, N-terminal His6 tag kept (pETDuet-1), E. coli; dimer; possible partial proteolysis
Briefly: chiral HPLC of NBD-F derivatives, racemase activity. In kind it is biochemical.

Substrate in data set [6]: O=C(O)[C@@H]1CCCN1
Briefly: purified protein.

Substrate in data set [7]: O=C(O)[C@@H]1C[C@@H](O)CN1
In words: purified protein.

Substrate in data set [8]: O=C(O)[C@H]1CCCN1
In words: purified protein.

Substrate in data set [9]: O=C(O)[C@H]1C[C@@H](O)CN1
Briefly: purified protein.

Substrate in data set [10]: O=C(O)[C@H]1NCC[C@@H]1O
Briefly: purified protein.

Data set [11] concerns the molecule itself. Briefly: SEC; analytic gel filtration by HPLC on TSKgel G3000SWXL, 50 mM Tris-HCl pH 8.0, 1 ml/min, high molecular weight calibration kit; data not shown.

T2 sequence (M0LMI3 entry or part of it): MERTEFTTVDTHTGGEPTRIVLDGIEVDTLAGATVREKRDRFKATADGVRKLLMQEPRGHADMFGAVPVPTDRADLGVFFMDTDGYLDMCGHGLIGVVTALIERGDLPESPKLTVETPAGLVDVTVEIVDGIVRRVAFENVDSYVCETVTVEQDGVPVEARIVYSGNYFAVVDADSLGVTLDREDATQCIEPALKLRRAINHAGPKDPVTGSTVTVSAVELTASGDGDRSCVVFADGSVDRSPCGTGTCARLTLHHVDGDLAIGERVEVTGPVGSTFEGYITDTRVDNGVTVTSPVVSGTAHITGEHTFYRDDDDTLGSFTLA

The molecule “ProR-like protein from Haloarcula japonica (enzyme)” had a stoichiometry N in [1] of 2.

In [2], “ProR-like protein from Ferroplasma acidiphilum (enzyme)” came in with a stoichiometry N of 2.

In the case of “ProR-like protein (OCC_00372) from Thermococcus litoralis, bifunctional proline racemase/hydroxyproline epimerase (enzyme)”, the stoichiometry N in [3] came to 2.

In data set [4], “Hydroxyproline 2-epimerase from Azospirillum brasilense (enzyme)” showed a stoichiometry N of 2.

`O=C(O)c1ccc[nH]1` [PYC, pyrrole-2-carboxylate] gave an IC50 in data set [5] of 217 µM.

The molecule `O=C(O)c1ccc[nH]1` [pyrrole-2-carboxylate] yielded a 50% inhibitory concentration (IC50) at HjProR of 295 µM.

B1: TlProR (bifunctional proline racemase/hydroxyproline epimerase) (Thermococcus litoralis DSM 5473) (protein)
chain: MFADHVFHVVDTHTEGEPTRIVLSGVNVKGEDIIEKREYFKEHYDWIRTALLHEPRGHSDQFGAVLVPSDIADFGVIYMDTSGYLDMCGHATMGVATVLVELGIIEKKEPYTTVKLETPAGLVEAKAKVKGGVVKEVTVVDVPSFYVGEFVIEYPGRGKIKVDVAFGGNFYVIADARDLGLRVRREYIKELIPTALKLIKVANEQIKVQHPRKGVQNRINLAMLTDEPEREDSDGKNVVIWGEGSVDRSPCGTGSASRVATLYSKGILKEGDIFVHESILGTQFRIKIVGTTKIGEYTAIIPEITGSAYITKISQDIISKNDPLWKGFLLR
Consider B1, for which the Km turned out to be 1210 µM in “purified protein [6]”; 6080 µM in “purified protein [7]”; 91.9 µM in “purified protein [8]”; 6650 µM in the data set “purified protein [9]”; 502 µM in “purified protein [10]”. Further, the kcat in “purified protein [6]” is 2.78 s⁻¹; in the data set “purified protein [7]” it was 12.1 s⁻¹; in “purified protein [8]”, 2.22 s⁻¹; in the data set “purified protein [9]” it was 3.83 s⁻¹; in the data set “purified protein [10]” it was 3.6 s⁻¹. Besides, the kcat/Km in the data set “purified protein [6]” was determined as 2300 M⁻¹ s⁻¹; in “purified protein [7]”, 2030 M⁻¹ s⁻¹; in “purified protein [8]” it was 26200 M⁻¹ s⁻¹; in the data set “purified protein [9]”, 580 M⁻¹ s⁻¹; in “purified protein [10]”, 7170 M⁻¹ s⁻¹.

B2: Proline racemase from Clostridium difficile (enzyme, Clostridium difficile 630, UniProt Q17ZY4 1-335, looked up)
chain: MKFSRSIQAIDSHTAGEATRIVVGGIPNIKGNSMPEKKEYLEENLDYLRTAIMLEPRGHNDMFGSVMTQPCCPDADFGIIFMDGGGYLNMCGHGTIGAMTAAIETGVVPAVEPVTHVVMEAPAGIIRGDVTVVDGKAKEVSFLNVPAFLYKEGVEVDLPGVGTVKFDISFGGSFFAIIHASQLGLKIEPQNAGKLTELAMKLRDIINEKIEIQHPTLAHIKTVDLVEIYDEPTHPEATYKNVVIFGQGQVDRSPCGTGTSAKLATLHAKGELKVGEKFVYESILGTLFKGEIVEETKVADFNAVVPKITGSAYITGFNHFVIDEEDPLKHGFILK
notes: Proline racemase CdProR of Clostridium difficile 630, gene CD630_32370 amplified from genomic DNA into pETDuet-1; calculated mass with His6-tag 37.7 kDa; also called CdProR; source: E. coli BL21-CodonPlus(DE3)-RIL, purified (Ni-NTA); not shown: His6, N-terminal, kept
Consider B2, for which, in data set [11], the “stoichiometry N” value was determined as 2.
